This is an account of results in US20050272633.

This series addresses T1, IL-2 receptor common gamma chain (cγc), full length (1-369), P31785.
T1 chain: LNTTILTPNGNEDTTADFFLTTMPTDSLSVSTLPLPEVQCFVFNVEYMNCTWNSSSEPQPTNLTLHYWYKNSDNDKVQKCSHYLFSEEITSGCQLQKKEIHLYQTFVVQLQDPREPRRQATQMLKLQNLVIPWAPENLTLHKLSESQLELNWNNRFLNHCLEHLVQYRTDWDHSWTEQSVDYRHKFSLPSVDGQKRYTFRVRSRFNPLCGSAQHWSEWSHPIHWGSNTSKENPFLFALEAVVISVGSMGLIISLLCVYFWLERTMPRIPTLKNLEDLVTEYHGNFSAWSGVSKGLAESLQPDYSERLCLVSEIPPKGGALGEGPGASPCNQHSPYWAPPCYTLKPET

B1: myc tagged NIK (pcS3MTNIK) (protein)
chain: MAVMEMACPGAPGSAVGQQKELPKAKEKTPPLGKKQSSVYKLEAVEKSPVFCGKWEILNDVITKGTAKEGSEAGPAAISIIAQAECENSQEFSPTFSERIFIAGSKQYSQSESLDQIPNNVAHATEGKMARVCWKGKRRSKARKKRKKKSSKSLAHAGVALAKPLPRTPEQESCTIPVQEDESPLGAPYVRNTPQFTKPLKEPGLGQLCFKQLGEGLRPALPRSELHKLISPLQCLNHVWKLHHPQDGGPLPLPTHPFPYSRLPHPFPFHPLQPWKPHPLESFLGKLACVDSQKPLPDPHLSKLACVDSPKPLPGPHLEPSCLSRGAHEKFSVEEYLVHALQGSVSSGQAHSLTSLAKTWAARGSRSREPSPKTEDNEGVLLTEKLKPVDYEYREEVHWATHQLRLGRGSFGEVHRMEDKQTGFQCAVKKVRLEVFRAEELMACAGLTSPRIVPLYGAVREGPWVNIFMELLEGGSLGQLVKEQGCLPEDRALYYLGQALEGLEYLHSRRILHGDVKADNVLLSSDGSHAALCDFGHAVCLQPDGLGKSLLTGDYIPGTETHMAPEVVLGRSCDAKVDVWSSCCMMLHMLNGCHPWTQFFRGPLCLKIASEPPPVREIPPSCAPLTAQAIQEGLRKEPIHRVSAAELGGKVNRALQQVGGLKSPWRGEYKEPRHPPPNQANYHQTLHAQPRELSPRAPGPRPAEETTGRAPKLQPPLPPEPPEPNKSPPLTLSKEESGMWEPLPLSSLEPAPARNPSSPERKATVPEQELQQLEIELFLNSLSQPFSLEEQEQILSCLSIDSLSLSDDSEKNPSKASQSSRDTLSSGVHSWSSQAEARSSSWNMVLARGRPTDTPSYFNGVKVQIQSLNGEHLHIREFHRVKVGDIATGISSQIPAAAFSLVTKDGQPVRYDMEVPDSGIDLQCTLAPDGSFAWSWRVKHGQLENRP
B1: the “in vitro kinase assay of anti NIK immunoprecipitates: NIK self- and IKK1-phosphorylation” value is “A three fold increase in phosphorylation of NIK self- and IKK1-phosphorylation was observed in the presence of cγc”.
